Assay results taken from publication PMC8038991, “R-catcher, a potent molecular tool to unveil the arginylome” (Cellular and Molecular Life Sciences: CMLS, 2021).
Entries after “also recorded” stand apart in the source; their conditions may differ.

Assays:
R-catcher [1] = experiment: Small-scale R-catcher pulldown of known arginylated proteins; assay type: binding, human; conditions: HEK293 cells, R-catcher on tactin beads, immunoblot, Fig. 4d
Experimental: (§1) For small-scale R-catcher pull-down assays, 300 µg of purified R-catcher was conjugated with 120 µl of Strep-Tactin sepharose resin by incubating overnight at 4 °C. To test R-catcher’s ability to capture known arginylated proteins, such as R-BiP, R-PDI, R-nsP4 and R-RGS4, plasmids encoding Ub-X-(BiP, PDI and nsP4) or MX-RGS4 (X = Arg or Val) were transiently transfected into HEK293 cells. After 24 h, cells were treated with 10 µM MG132 and 100 nM thapsigargin for another 24 h. Cells were harvested and lysed in hypotonic buffer and 300 µg total protein was incubate with 25 µl R-catcher-sepharose resin in binding buffer (20 mM HEPES pH 7.9, 0.05% Tween 20, 10% glycerol, 0.2 M KCl, protease inhibitor and phosphatase inhibitor) for 3 h with gentle rotation at 4 °C. After three washes with binding buffer, bound proteins were dissociated with 2 × SDS sample buffer and boiling at 100 °C and subjected to immunoblotting using anti-myc or flag antibodies.

R-catcher [2] = experiment: R-catcher pulldown of putative arginylated ER proteins, HeLa; assay type: binding, human; conditions: 5 µM MG132 plus 100 nM TG, RA competition, Fig. 6a
Experimental: as §1
Plasmids encoding the proteins were transiently transfected to HeLa cells for 24 h and stimulated with 5 µM MG132 plus 100 nM TG for another 24 h. Cell lysates were incubated with R-catcher immobilized on tactin beads for 3 h. After wash, bound proteins were eluted with 2 × SDS sample buffer followed by boiling at 100 °C for 10 min and visualized by western blot analysis. b R-catcher pulldown assays to validate ATE1-dependent arginylation of […]1, PRDX4, FBLN1 and CLUS. Plasmids encoding […]1, PRDX4, FBLN1 and CLUS were transiently transfected into + / + and ATE1^−/− MEFs for 24 h and stimulated with 5 µM MG132 plus 100 nM TG for another 9 h. Cell lysates were subjected to R-catcher pulldown, and bound proteins were detected by western blot analysis. c R-catcher pull-down assays to evaluate if the arginylation of FBNL1, SERPINH1, CLUS and PRDX4 is induced in response to MG132 plus thapsigargin. d X-peptide pulldown assays to confirm no interaction of R-catcher with Nt-Ala19 of SERPINH1 peptides and Nt-Trp38 of PRDX4 peptides. X-peptides where X is A19 (SignalP predicted P1’ site), E20 (next possible P1’ site predicted by PrediSi) or R19 (Arginylated form of Glu) for SERPINH1 and W38 (SignalP predicted P1’ site), E39 (next possible P1’ site predicted by PrediSi) or R38 (Arginylated form) for PRDX4. Biotinylated X-peptides immobilized on streptavidin agarose beads were incubated with affinity-purified GST-ZZ ([…]). Bound GST-ZZ (N132D) was detected by immunoblotting. e Identification of arginylated sites employing mutational analysis. Predicted P1’ sites of SERPINH1, PRDX4, CLUS and FBLN1 were substituted to Gly, and the inhibitory effect of the mutation on binding with R-catcher was examined by performing R-catcher pulldown assays

R-catcher [3] = experiment: R-catcher pulldown in +/+ and ATE1-/- MEFs; assay type: binding; conditions: +/+ versus ATE1-/- MEFs, MG132 plus TG, 9 h, Fig. 6b
Experimental: as §1
(§2) Plasmids encoding the proteins were transiently transfected to HeLa cells for 24 h and stimulated with 5 µM MG132 plus 100 nM TG for another 24 h. Cell lysates were incubated with R-catcher immobilized on tactin beads for 3 h. After wash, bound proteins were eluted with 2 × SDS sample buffer followed by boiling at 100 °C for 10 min and visualized by western blot analysis. b R-catcher pulldown assays to validate ATE1-dependent arginylation of […]1, PRDX4, FBLN1 and CLUS. […] Cell lysates were subjected to R-catcher pulldown, and bound proteins were detected by western blot analysis. c R-catcher pull-down assays to evaluate if the arginylation of FBNL1, SERPINH1, CLUS and PRDX4 is induced in response to MG132 plus thapsigargin. d X-peptide pulldown assays to confirm no interaction of R-catcher with Nt-Ala19 of SERPINH1 peptides and Nt-Trp38 of PRDX4 peptides. […] Bound GST-ZZ (N132D) was detected by immunoblotting. e Identification of arginylated sites employing mutational analysis. […]

R-catcher [4] = experiment: R-catcher pulldown of P1' site Gly mutants; assay type: binding, human; conditions: E20 SERPINH1, E30 (printed) PRDX4, D23 CLUS, D30 FBLN1 to Gly, Fig. 6e
Experimental: as §1, §2

[5] = Identification of arginylation sites, GelNrich and in-gel digestion LC-MS/MS
Text: Upon separation of the immunoprecipitated protein by SDS-PAGE and staining with Coomassie Blue, the corresponding protein band was excised, half of which was subjected to GelNrich and the other half to conventional in-gel digestion GelNrich is an N-terminal peptide enrichment method based on in-gel digestion. The method includes in-gel protein level labeling of primary amines using d6-acetic anhydride and post-digestion negative selection of labeled N-terminal peptide(s) using N-hydroxysuccinimide activated agarose beads. Peptides recovered from GelNrich or in-gel digestion were dried in a vacuum evaporator and reconstituted in 0.1% formic acid. An aliquot was injected from a cooled (10 °C) auto-sampler into a reversed-phase EASY-Spray column (25 cm × 75 μm, Thermo Fisher Scientific) on an Eksigent nanoLC-ultra 1D plus system (Danaher Corporation) at a flow rate of 300 nL/min. Prior to use, the column was equilibrated with 96% buffer A (0.1% formic acid in water) and 4% buffer B (0.1% formic acid in acetonitrile). The peptides were eluted with a linear gradient from 4 to 35% buffer B over 60 min and 35–80% buffer B over 2 min followed by an organic wash and aqueous re-equilibration at a flow rate of 300 nL/min with a total run time of 96 min. The HPLC system was coupled to a Q-Exactive mass spectrometer (Thermo Fisher Scientific) operated in a data-dependent acquisition (DDA) mode. Survey full-scan MS spectra (m/z 400–1800) were acquired with a resolution of 70,000. The MS/MS spectra of the 12 most intense ions from the MS1 scan with charge states 1 ~ 5 were acquired with the following options: resolution, 17,500; automatic gain control (AGC) target, 5E4; isolation width, 2.0 m/z; normalized collision energy, 27%; dynamic exclusion duration, 60 s; and ion selection threshold, 4.2E2 counts. Source ionization parameters were as follow: spray voltage, 1.9 kV; capillary temperature, 275 °C; and s-lens level, 50.0. […]

Molecule	pulldown by R-catcher, overexpressed substrates (R-catcher [1])	binding with R-catcher, Nt-Arg dependence (R-catcher [2])	capture by R-catcher, ATE1 dependence (R-catcher [3])	effect of Gly substitution of P1' site on interaction with R-catcher (R-catcher [4])	arginylation detected by mass spectrometry [5]
RGS4: ATE1 model substrate RGS4 (2nd oxidized Cys) (protein, oxidized Cys as 2nd residue; left off: myc, end not stated, kept | His, end not stated, state not stated) RCKGLAGLPASCLRSAKDMKHRLGFLLQKSDSCEHNSSHNKKDKVVICQRVSQEEVKKWAESLENLISHECGLAAFKAFLKSEYSEENIDFWISCEEYKKIKSPSKLSPKAKKIYNEFISVQATKEVNLDSCTREETSRNMLEPTITCFDEAQKKIFNLMEKDSYRRFLKSRFYLDLVNPSSCGAEKQKGAKSSADCASLVPQCA	could pulldown				
PRDX4: Peroxiredoxin-4 (protein, UniProt Q13162 38-271, looked up) Peroxiredoxin-4: WETEERPRTREEECHFYAGGQVYPGEASRVSVADHSLHLSKAKISKPAPYWEGTAVIDGEFKELKLTDYRGKYLVFFFYPLDFTFVCPTEIIAFGDRLEEFRSINTEVVACSVDSQFTHLAWINTPRRQGGLGPIRIPLLSDLTHQISKDYGVYLEDSGHTLRGLFIIDDKGILRQITLNDLPVGRSVDETLRLVQAFQYTDKHGEVCPAGWKPGSETIIPDPAGKLKYFDKLN		Nt-Arg-dependent binding with R-catcher	captured by R-catcher in an ATE1-dependent manner	significantly impaired their interaction with R-catcher; also recorded: abolished their binding with R-catcher	not detected
SERPINH1: serpin H1 (protein, UniProt P50454 19-418, looked up) Serpin H1: AEVKKPAAAAAPGTAEKLSPKAATLAERSAGLAFSLYQAMAKDQAVENILVSPVVVASSLGLVSLGGKATTASQAKAVLSAEQLRDEEVHAGLGELLRSLSNSTARNVTWKLGSRLYGPSSVSFADDFVRSSKQHYNCEHSKINFRDKRSALQSINEWAAQTTDGKLPEVTKDVERTDGALLVNAMFFKPHWDEKFHHKMVDNRGFMVTRSYTVGVMMMHRTGLYNYYDDEKEKLQIVEMPLAHKLSSLIILMPHHVEPLERLEKLLTKEQLKIWMGKMQKKAVAISLPKGVVEVTHDLQKHLAGLGLTEAIDKNKADLSRMSGKKDLYLASVFHATAFELDTDGNPFDQDIYGREELRSPKLFYADHPFIFLVRDTQSGSLLFIGRLVRPKGDKMRDEL		Nt-Arg-dependent binding with R-catcher	captured by R-catcher in an ATE1-dependent manner	significantly impaired their interaction with R-catcher; also recorded: abolished their binding with R-catcher	not detected
FBLN1: fibulin-1 (protein, UniProt P23142 30-703, looked up) Fibulin-1: DVLLEACCADGHRMATHQKDCSLPYATESKECRMVQEQCCHSQLEELHCATGISLANEQDRCATPHGDNASLEATFVKRCCHCCLLGRAAQAQGQSCEYSLMVGYQCGQVFQACCVKSQETGDLDVGGLQETDKIIEVEEEQEDPYLNDRCRGGGPCKQQCRDTGDEVVCSCFVGYQLLSDGVSCEDVNECITGSHSCRLGESCINTVGSFRCQRDSSCGTGYELTEDNSCKDIDECESGIHNCLPDFICQNTLGSFRCRPKLQCKSGFIQDALGNCIDINECLSISAPCPIGHTCINTEGSYTCQKNVPNCGRGYHLNEEGTRCVDVDECAPPAEPCGKGHRCVNSPGSFRCECKTGYYFDGISRMCVDVNECQRYPGRLCGHKCENTLGSYLCSCSVGFRLSVDGRSCEDINECSSSPCSQECANVYGSYQCYCRRGYQLSDVDGVTCEDIDECALPTGGHICSYRCINIPGSFQCSCPSSGYRLAPNGRNCQDIDECVTGIHNCSINETCFNIQGGFRCLAFECPENYRRSAATLQQEKTDTVRCIKSCRPNDVTCVFDPVHTISHTVISLPTFREFTRPEEIIFLRAITPPHPASQANIIFDITEGNLRDSFDIIKRYMDGMTVGVVRQVRPIVGPFHAVLKLEMNYVVGGVVSHRNVVNVHIFVSEYWF		Nt-Arg-dependent binding with R-catcher	captured by R-catcher in an ATE1-dependent manner	significantly impaired their interaction with R-catcher; also recorded: abolished their binding with R-catcher	the D30 residue
